# Data from patent US10975357B2, “Methods and compositions related to differentiated lung cells” (TRUSTEES OF BOSTON UNIVERSITY, priority 2017, dated 2021).
# B1: BMP4: recombinant human BMP4 (protein, UniProt P12644 293-408, looked up)
# Bone morphogenetic protein 4: SPKHHSQRARKKNKNCRRHSLYVDFSDVGWNDWIVAPPGYQAFYCHGDCPFPLADHLNSTNHAIVQTLVNSVNSSIPKACCVPTELSAISMLYLDEYDKVVLKNYQEMVVEGCGCR
# B2: KGF: Recombinant human KGF, agonist of FGF signaling (protein, UniProt P21781 32-194, looked up)
# Fibroblast growth factor 7: CNDMTPEQMATNVNCSSPERHTRSYDYMEGGDIRVRRLFCRTQWYLRIDKRGKVKGTQEMKNNYNIMEIRTVAVGIVAIKGVESEFYLAMNKEGKLYAKKECNEDCNFKELILENHYNTYASAKWTHNGGEMFVALNQKGIPVRGKKTKKEQKTAHFLPMAIT
# B3: OSM: Recombinant human OSM, cytokine activating the JAK/STAT3 pathway (protein, UniProt P13725 26-221, looked up)
# Oncostatin-M: AAIGSCSKEYRVLLGQLQKQTDLMQDTSRLLDPYIRIQGLDVPKLREHCRERPGAFPSEETLRGLGRRGFLQTLNATLGCVLHRLADLEQRLPKAQDLERSGLNIEDLEKLQMARPNILGLRNNIYCMAQLLDNSDTAEPTKAGRGASQPPTPTPASDAFQRKLEGCRFLHGYHRFMHSVGRVFSKWGESPNRSRR
# B4: FGF10: Recombinant human FGF10 (protein, UniProt O15520 38-208, looked up)
# Fibroblast growth factor 10: QALGQDMVSPEATNSSSSSFSSPSSAGRHVRSYNHLQGDVRWRKLFSFTKYFLKIEKNGKVSGTKKENCPYSILEITSVEIGVVAVKAINSNYYLAMNKKGKLYGSKEFNNDCKLKERIEENGYNTYASFNWQHNGRQMYVALNGKGAPRRGQKTRRKNTSAHFLPMVVHS
# Tests used:
# [1] = test system: NKX2-1+ lung epithelial progenitor cells; experiment: SFTPCtdTomato reporter induction in day 15 NKX2-1+ progenitor outgrowth in 3D culture (flow cytometry); type: cell-based, human; settings: for further SFTPC induction efficiency with addition of the factor: factor added to differentiation media, FIG. 9B
# Experimental: Purification of NKX2-1+ Lung Progenitors by Cell Sorting. On day 15 of differentiation, cells were incubated at 37° C. in 0.05% trypsin-EDTA (Invitrogen) for 7-15 minutes, until they reached single cell suspension. Cells were then washed in media containing 10% fetal bovine serum (FBS, ThermoFisher), centrifuged at 300g×5 minutes, and resuspended in sort buffer containing Hank's Balanced Salt Solution (ThermoFisher), 2% FBS, 10 μM Y-27632, and 10 uM calcein blue AM (Life Technologies) for dead cell exclusion. Cells not containing the NKX2-1GFP reporter were subsequently stained with CD47-PerCPCy5.5 and CD26-PE antibodies (mouse monoclonal; Biolegend 1:200; 1×10^6 cells in 100 ul) for 30 minutes at 4° C., washed with PBS, and resuspended in sort buffer. Cells were passed through a 40 um strainer prior to sorting (Falcon). Various live cell populations indicated in the text (i.e. GFP+, GFP−, CD47hi/CD26−,CD47lo) were sorted on a high-speed cell sorter (MoFlo Legacy). Directed Differentiation of NKX2-1+ Lung Progenitor Outgrowth into iAEC2s Day 15 cells, either sorted (as described above) or unsorted (dissociated as described above), were resuspended in undiluted growth factor-reduced matrigel (Corning) at a dilution of 50-100 cells/ul, with droplets ranging in size from 20 ul in 96 well plates to 1 ml in 10 cm tissue culture-treated dishes (Corning). Cells in matrigel suspension were incubated at 37° C. for 20-30 minutes, then warm media was added to the plates.
# (§1) Where indicated in the text, outgrowth and distal/alveolar differentiation of cells after day 15 was performed in “CK+DCI” medium, consisting of cSFDM base, with 3 μM CHIR99021, 10 ng/mL rhKGF, and 50 nM dexamethasone (Sigma), 0.1 mM 8-Bromoadenosine 3′,5′-cyclic monophosphate sodium salt (Sigma) and 0.1 mM 3-Isobutyl-1-methylxanthine (IBMX) (Sigma) (DCI). Immediately after replating cells on Day 15 10 μM Y-27632 was added to the medium for 24 hours. Additional growth factors or cytokines were added or withdrawn as indicated in the text, including FGF10, TGFb, EGF, OSM (20 ng/ml), TNFa (10 ng/ml), and IL-1b (10 ng/ml) with other concentrations listed in figure legends (FIGS. 9A, 9B).
# Alveolosphere Long Term Culture, Dissociation, and Differentiation. […] These spheres were analyzed as follows: Z-stack images of live alveolospheres were taken and processed on a Keyence (Osaka, Japan) BZ-X700 fluorescence microscope. […] To generate single cell suspensions, cell pellets were incubated in 0.05% trypsin and continued through the trypsin-based dissociation protocol described above, after which they could be passaged into fresh matrigel, analyzed by flow cytometry, or sorted as described above. […]
# [2] = test system: JAK/STAT3 pathway; experiment: Cytokine stimulation of PSC-derived alveolospheres, JAK/STAT3 pathway (Western blot phospho-STAT3, SOCS3 RT-qPCR); type: cell-based, human; settings: OSM 20 ng/ml
# Experimental: as §1
# Reverse Transcriptase Quantitative Real Time Polymerase Chain Reaction (RT-qPCR). RT-qPCR was performed as previously described (Hawkins et al. 2017,). Briefly, RNA was isolated according to manufacturer's instructions using the Qiagen miRNeasy mini kit (Qiagen, Venlo, Netherlands). cDNA was generated by reverse transcription of up to 150 ng RNA from each sample using the Applied Biosystems High-Capacity cDNA Reverse Transcription Kit. […] Relative gene expression was calculated based on the average cycle (Ct) value of the technical triplicates, normalized to 18S control, and reported as fold change (2(−ΔΔCT)), with a fold change of 1 being assigned to undifferentiated (day 0) iPSCs or ESCs. […]
molecule,measurement,setting,value
B1,further SFTPC induction efficiency with addition of the factor,[1],No consistent further SFTPC induction efficiency
B2,need for initial induction of the tdTomato reporter,"[1]; component removed from media, FIG. 9A, 9B",dispensable
same,"promoting outgrowth of tdTomato+ cells by day 21, combined with CHIR, compared to FGF10+CHIR","[1]; day 21, FIG. 9B",more consistent
B3,"STAT3 signaling (phosphorylated STAT3 protein, SOCS3 mRNA)",[2],significant and rapid activation of STAT3 signaling
B4,further SFTPC induction efficiency with addition of the factor,[1],No consistent further SFTPC induction efficiency
